According to patent publication US5837499A, “DNA encoding C5A receptor antagonists having substantially no agonist activity and methods of expressing same” (priority 1995, dated 1998):
Positions count from the first letter of the chain named. Names may count otherwise. Blank lines part the entries; values can stand above or below the molecule they belong to. Where a SMILES comes first, the peptide text is derived from it.

How the values were obtained:
C5a receptor [1] = molecular target: T1, C5a receptor (Homo sapiens, UniProt P21730); assay: C5a induced Ca++ rise in fura-2 loaded neutrophils (antagonist IC50 / agonist EC50); format: cell-based; conditions: for Concentration up to which tested and agonist activity not detected (calcium rise): highest concentration tested, agonist activity was not detected
T1 construct: Neutrophils were purified from human peripheral blood; endogenous in cells; host or cells: neutrophils from human peripheral blood
T1 sequence (P21730 1-350): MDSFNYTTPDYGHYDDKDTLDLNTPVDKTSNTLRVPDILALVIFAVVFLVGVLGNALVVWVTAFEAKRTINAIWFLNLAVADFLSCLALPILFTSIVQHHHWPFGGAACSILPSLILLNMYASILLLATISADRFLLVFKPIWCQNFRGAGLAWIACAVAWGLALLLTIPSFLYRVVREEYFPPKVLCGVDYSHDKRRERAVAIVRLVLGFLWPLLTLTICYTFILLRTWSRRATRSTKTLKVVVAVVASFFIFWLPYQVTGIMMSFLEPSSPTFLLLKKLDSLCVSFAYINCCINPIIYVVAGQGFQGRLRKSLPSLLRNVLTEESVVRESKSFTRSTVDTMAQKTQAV
Description: The antagonism of the instant C5a analogues may be quantified as an IC50 in the calcium rise assay disclosed in Agents and Actions 21:375-378 (1987), described in detail in Example 7.
See Hugli et al., CRC Crit. Rev. Immunol. 1:321-326 (1981) and PCT WO 92/10205. A quantitative measure of this property may also be obtained using the calcium rise assay disclosed in Seligmann et al., supra, also described in Example 7. EC50 is a measure of agonistic activity. […] Applicants have not detected agonist activity of the instant C5a analogues up to a concentration of at Least about 8.0×10^-7 M, and preferably at least about 3.0×10^-6 M in the same calcium rise assay.
Recombinant human C5a was dissolved in Hanks buffer containing 0.01% Tween-20, and all stock dilutions of C5a were made in this buffer. The acetoxymethyl ester of fura-2 (fura 2AM, Molecular Probes) was dissolved in DMSO. Neutrophils were purified from human peripheral blood by sedimentation in 6% hetastarch (HESPAN, DuPont, Waukegan, Ill.), followed by counter flow elutriation as described in Chapman-Kirkland et al., J. Immunol. Meth. 142:95-104 (1991). Purified cells (2×10^6 /ml) were mixed with 0.2 uM fura- 2AM and incubated for 30 min at 37° C. in HEPES buffered Hanks solution without calcium or magnesium. Fifteen minutes before the assay, the cell suspension was transferred to a curvette containing a stir bar and calcium was added to 1 mM. The cell suspension was incubated with stirring at 37° C. Assays were terminated within 5 h of cell purification and a standard control response was obtained periodically to insure that the cell responses were not changing over the time of the experiment. The amount of fluorescence was determined using an SLM 8000 spectrofluorometer (SLM-Aminco Instruments, Urbana, Ill.). Curvettes were placed in the fluorometer and after obtaining a baseline for 10 sec, the C5a receptor antagonists to be tested for antagonistic properties were added and any change in fluoresence excitation ratio of 340 nm/380 nm (emission of 510 nm) was measured. Forty seconds after analogue addition, a challenge dose of C5a was added to a final concentration of 100 pM and the resulting change in excitation ratio was measured.
IC50 values were used as a measure of antagonist potency. These values are defined as the concentration of C5a analogue needed to reduce the calcium rise response of the 100 pM C5a challenge dose by 50%. EC50 values were used as a measure of agonist potency. […]

C5a receptor [2] = molecular target: T1, C5a receptor; assay: Receptor binding assay: displacement of [125I]Bolton-Hunter-labelled C5a from PMNL membranes; conditions: Table 4, [125I]BH-C5a 4.0 pM, 120 min at 4° C., Cheng-Prusoff
Protocol: C5a and C5a receptor antagonists were tested for their affinity for the C5a receptor. […] PMNLs were resuspended in Hanks balanced salt solution, without Ca^++ and Mg^++ and which contained 10 mM HEPES; at pH 7.3, 2.5 mM MgCl2, 100 units/ml DNAse I, 0.1 mM PMISF, 10 μg/ml aprotonin and 10 μg/ml leupeptin. They were then equilibrated at 400 psi for 20 min at 4° C. in a nitrogen cavitation bomb. After evacuation into 3 volumes 0.5 M KHCO3 containing 25 mM EDTA and the protease inhibitors listed above, the gelatinous material was removed with forceps and the mixture was centrifuged at 400×g for 10 min at 4° C. The resulting supernatant was centrifuged at 50,000×g for 60 min at 4° C. The pellets from the aliquots representing 200×10^6 cells were stored at -70° C. For binding studies, these membranes were resuspended at an equivalent of 20×10^6 cells/ml in 50 mM HEPES at pH 7.3, containing 1 mM CaCl2, 5 mM MgCl2, 0.1 mM PMSF, 0.1% bacitracin and 0.5% BSA.
Nonspecific binding was determined in the presence of 10 nM unlabelled C5a. The binding reaction was initiated by the addition of the PMNL membranes and was continued for 120 min at 4° C. Bound and free radioactivity were separated by vacuum filtration through GF/C glass fiber filters (Whatman), pretreated for 90 min with 0.05% PEI (polyethyleneimine) using a Cell Harvester (Brandel, Gaithersburg, Md.). Filters were washed with 3×5 ml of ice-cold 5 mM Tris buffer at pH 7.4 and counted in a multiwell Gamma counter (Genesys). Data were analyzed using the non-linear regression analysis program, RS/1 (Bolt, Beranek and Newman, Boston) and expressed as IC50 values. The results are set forth below in Table 4 as Ki values using the Cheng-Presoff equation. See Braunwalder et al., supra

[3] = test system: New Zealand White rabbits (C5a-induced enhancement in vascular permeability); assay: Rabbit dermal model of inflammation ([125I]-BSA exudation after intradermal C5a); format: in vivo
Protocol: All experiments were performed on male New Zealand White rabbits weighing 2.5-3.0 kg. The backs; of the rabbits were shaved and 40-50 skin sites were designated with markers of different colors. Different stimuli (i.e., C5a, C5a analogue, C5a+C5a analogue, vehicle control, etc.) were injected intradermally at 0.1 ml/site using a sterile, disposable, 26 gauge, 0.5 in. needle and 1.0 cc tuberculin syringe. I.D. injections were administered in replicates of six, roughly 45 minutes before euthanization. C5a alone was injected at a dose of 50 ng/site, and the C5a receptor antagonists were co-injected at various concentrations with the same dose of C5a. At 20 minutes prior to euthanization, 18-36 uCi of [125I]-labeled bovine serum albumin in 1.0 ml physiological saline were introduced into the systemic circulation via the marginal auricular vein. At 45 minutes, the rabbit was euthanized with an I.V. overdose of sodium pentobarbital. […]
After death, the dorsal skin was excised and pinned to a wooden dissecting board. […] This procedure reduced variation among skin sites and decreased background radioactivity. […] Injection sites were then analyzed for their radioactive content using a Gamma Counter (Genesys).

[4] = test system: New Zealand White rabbits (C5a-induced neutropenia); assay: C5a-induced neutropenia in the rabbit; format: in vivo; conditions: i.v. bolus; for Inhibition of C5a-induced neutropenia vs vehicle-treated rabbits: 100 ng C5a i.v.
Protocol: All experiments were performed on male New Zealand White rabbits weighing 2.5-3.0 kg. Rabbits were anesthetized with 10 mg/kg xylazine and 50 mg/kg ketamine administered in combination intramuscularly. A 25 gauge butterfly catheter was inserted in the lateral ear vein to use for infusions. Each blood sample (0.2 ml) was collected from the central ear artery into a plastic syringe fitted with a 25 gauge, 5/8 inch needle and charged with 7.5% EDTA as an anticoagulant. Blood was immediately expressed into a microcentrifuge tubes containing 10 microliters of 7.5% EDTA. An initial arterial blood sample (#1) was obtained and immediately thereafter vehicle or the C5a analogue of Example 8 was infused intravenously (bolus injection). Twenty seconds later, a second blood sample (#2) was obtained and twenty seconds thereafter 100 ng of C5a in 0.2 ml were infused intravenously (bolus injection). Twenty seconds later, a third blood (#3) sample was taken. Thirty minutes later, a second round of blood sample (#4)--20 seconds--C5a infusion--20 seconds--blood sample (#5) was performed. Blood samples were evaluated by automated hematologic analysis (Technicon H*1) using software specific for rabbit blood. Reductions in neutrophil counts (number per milliliter) induced by C5a(C5a-induced neutropenia, determined by comparing blood sample #3 to #2 and #5 to #4) were compared between vehicle-treated and C5a analogue-treated animals.

B2: C5a(1-71,T1M,C27S,Q71C) (protein, UniProt P01031 678-748, looked up, fragment T1M C27S Q71C)
chain: MLQKKIEEIAAKYKHSVVKKCCYDGASVNNDETCEQRAARISLGPRCIKAFTECCVVASQLRANISHKDMC
modifications: C5a anaphylatoxin
Ki (C5a receptor [2]): 0.2 nM
Concentration up to which tested and agonist activity not detected (calcium rise) (C5a receptor [1]): > 3000 nM
ID50 (50% reduction in the radioactivity produced by C5a) ([3]; intradermal co-injection with 50 ng C5a/site): 70 ng/site
Pro-inflammatory reaction (agonist properties in vivo) ([3]; intradermal, 175 ng/site): did not cause a pro- inflammatory reaction
Inhibition of C5a-induced neutropenia vs vehicle-treated rabbits ([4]; 30-minute C5a challenge interval): 41%
Inhibition of C5a-induced neutropenia vs vehicle-treated rabbits ([4]; 40-second C5a challenge interval): 67%
Effect on baseline neutrophil counts (agonistic, C5a-like properties) ([4]; before C5a challenge): did not alter baseline neutrophil counts from normal

B4: C5a(1-71,T1M,C27S) (protein, UniProt P01031 678-748, looked up, fragment T1M C27S)
chain: B2 chain with C71Q
modifications: C5a anaphylatoxin
notes: comparison agonist
Ki (C5a receptor [2]): 3 nM

B8: C5a(1-71,T1M,C27S,Q71S) (protein, UniProt P01031 678-748, looked up, fragment T1M C27S Q71S)
chain: B2 chain with C71S
modifications: C5a anaphylatoxin
notes: comparison agonist
Ki (C5a receptor [2]): 7.5 nM

B10: Analogue 22: dimeric form of analogue No. 8, disulfide linked through the C-terminal cysteines (protein, UniProt P01031 678-748, looked up, fragment T1M C27S Q71C)
chain: B2 chain
modifications: C5a anaphylatoxin disulfide-linked dimer
notes: dimeric form of analogue No. 8, disulfide linked through the C-terminal cysteines
Ki (C5a receptor [2]): 0.04 nM

B11: C5a(1-72,T1M,C27S,L72C) (protein, UniProt P01031 678-749, looked up, fragment T1M C27S L72C)
chain: MLQKKIEEIAAKYKHSVVKKCCYDGASVNNDETCEQRAARISLGPRCIKAFTECCVVASQLRANISHKDMQC
modifications: C5a anaphylatoxin
Ki (C5a receptor [2]): 0.9 nM
Concentration up to which tested and agonist activity not detected (calcium rise) (C5a receptor [1]): > 1500 nM

More lines, now with the values ahead:

Agonist / antagonist character (C5a receptor [1]; result in words): significant agonist activity
Molecule: CC[C@H](C)[C@H](N)C(=O)N[C@@H](CO)C(=O)N[C@@H](Cc1ccccc1)C(=O)N[C@@H](CCCCN)C(=O)N[C@@H](CC(=O)O)C(=O)N[C@@H](CCSC)C(=O)N[C@@H](CCC(N)=O)C(=O)N[C@@H](CC(C)C)C(=O)NCC(=O)N[C@@H](CCCNC(=N)N)C(=O)O [Decapeptide, reference compound] (H-ISFKDMQLGR-OH)

Concentration up to which tested and agonist activity not detected (calcium rise) (C5a receptor [1]): > 1000 nM
B1: C5a(1-70,T1M,C27S,M70C) (protein, UniProt P01031 678-747, looked up, fragment T1M C27S M70C)
chain: MLQKKIEEIAAKYKHSVVKKCCYDGASVNNDETCEQRAARISLGPRCIKAFTECCVVASQLRANISHKDC
modifications: C5a anaphylatoxin

Ki (C5a receptor [2]): 8.5 nM
B3: C5a(1-71,T1M,C27S,Q71D) (protein, UniProt P01031 678-748, looked up, fragment T1M C27S Q71D)
chain: B2 chain with C71D
modifications: C5a anaphylatoxin
notes: comparison agonist

Ki (C5a receptor [2]): 0.1 nM
Concentration up to which tested and agonist activity not detected (calcium rise) (C5a receptor [1]): > 800 nM
B5: C5a(1-71,T1M,C27S,H67F,Q71C) (protein, UniProt P01031 678-748, looked up, fragment T1M C27S H67F Q71C)
chain: B2 chain with H67F
modifications: C5a anaphylatoxin

Ki (C5a receptor [2]): 0.035 nM
B6: C5a(1-71,T1M,C27S,Q71L) (protein, UniProt P01031 678-748, looked up, fragment T1M C27S Q71L)
chain: B2 chain with C71L
modifications: C5a anaphylatoxin
notes: comparison agonist

Ki (C5a receptor [2]): 0.15 nM
B7: C5a(1-71,T1M,C27S,Q71H) (protein, UniProt P01031 678-748, looked up, fragment T1M C27S Q71H)
chain: B2 chain with C71H
modifications: C5a anaphylatoxin
notes: comparison agonist

Ki (C5a receptor [2]): 0.35 nM
B9: C5a(1-71,T1M,C27S,Q71R) (protein, UniProt P01031 678-748, looked up, fragment T1M C27S Q71R)
chain: B2 chain with C71R
modifications: C5a anaphylatoxin
notes: comparison agonist
